According to patent publication US20220315908A1, “NOVEL GARDNERELLA ENDOLYSINS AND USES THEREOF” (priority 2019, published 2022):

B1: H1B1: natural Gardnerella prophage endolysin from strain HMP9231 (protein)
chain: MSKKGIDVSEWQGDIDFNAVKASGVEFVIIRAGYGIGCKDKWFEQNYRKAKTAGLDVGAYWYSYANSGFEAAEEAQSLMNMLSGKSFEYPVYFDLEEKSQLNRGRAFCDSLITSFCNKLEACGYYAGFYTSLSTANNLVSAHVRNRYALWIAQWNTHCNYQGSYGLWQYSSNGSVPGVAGRVDMDYAYVDYPSIIKNAGLNGCKNGGSDQAARTSSIDEVAREVINGAWGNGSTRKQRLTSAGYDYASVQNKVNELLGVKACRKSVDELAREVIRGAWGNGSTRKQRLAQAGYDYDTVQKRVNELL
modifications: EL1_strain_HMP9231
notes: natural Gardnerella prophage endolysin from strain HMP9231
B2: H2B2: natural Gardnerella prophage endolysin from strain Gv18-4 (protein)
chain: MSKRGIDVSEWQGDIDFNAVKASGVEFVIIRAGYGIGCKDKWFEQNYRKAKTCGLDVGAYWYSYANSGFEAAEEAQSCVNMLSGKSFEYPVYFDLEEKSQLNRGRAFCDSLITGFCNKLESCGYYAGFYTSLSTANNLVSAHVRNRYALWIAQWNTHCSYQGSYGLWQYSSSGSVPGVAGRVDMDYAYVDYPSIIKNVGLNGCKNGGSDQAARTSSIDEVAREVINGAWGNGNERKQRLTSAGYDYASVQNKVNELLGVKACRKSVDEIAREVIRGTWGNGSTRKQRLTQAGYDYDTVQKRVNELL
modifications: EL2_strain_Gv18-4
B3: H3B3: natural Gardnerella prophage endolysin from strain Gv18-4 (protein)
chain: MSKKGIDVSVWQGDIDFNSVKASGVEFVIIRAGYGIGHKDKWFEENYRKAKTAGLDVGSYWYSYASSAGEASEEAQSCVNILSGKSFEYPIYFDLEEKSQLNRGRDFCDSLITSFCNKLEACGYYAGFYTSLSVANNLVSSHVRDRYALWIAQWNTHCSYQGSYGLWQYSSSGSVNGIAGRVDMDYAYVDYPSVIKNAGLNGYQNGGSYTAPQTSSIDEVAREVINGDWGNGNDRKNRLISAGYDYASVQNKVNELLGVKAYRKSVDELAREVIRGTWGNGSMRKHRLTQAGYDYDAVQKRVNELL
modifications: EL3_strain_Gv18-4
B4: H4B4: natural Gardnerella prophage endolysin from strain Gv5-1 (protein)
chain: MSKKGIDVSEWQGDIDFNAVKASGVEFVIIRAGYGIGCKDKWFEQNYRKAKTCGLDVGAYWYSYANSGFEAAEEAQSCVNMLSGKSFEYPVYFDLEEKSQLNRGRAFCDSLITSFCSKLETYGYYAGFYTSLSVVNNLVSAHVRDRYALWIAQWNTHCSYQGSYGLWQYSSSGSVPGVAGRVDMDYAYVDYPSIIKNVGLNGCKNGGSDQATRTSSIDEVAREVINGAWGNGNERKQRLTSAGYDYASVQNKVNKLLGVKAYRKSVDELAREVIRGTWGNGNERKQRLAQAGYDYDTVQKRVNELL
modifications: EL4_strain_Gv5-1
B5: H5B5: natural Gardnerella prophage endolysin from strain JCP7276 (protein)
chain: MSKKGIDVSEWQGDIDFNAVKASGVEFVIIRAGYGIGCKDKWFEQNYRKAKTAGLDVGAYWYSYANSSSEAAEEAQSCANMLSGKSFEYPVYFDLEEKSQLNRGRAFCDSLITGFCSKLEACGYYAGFYTSLSTANNLVSAHVRNRYALWIAQWNTHCSYQGSYGLWQYSSNGSVPGVAGRVDMDYAYKDYPSIIKNAGLNGCKNGGSDQAARTSSIDEVAREVINGAWGNGNERKQRLTQAGYDYTSVQNKVNKLLGVKACRKSVDELAREVIRGTWGNGNERKNRLTQAGYDYDTVQKRVNELL
modifications: EL5_strain_JCP7276
notes: natural Gardnerella prophage endolysin from strain JCP7276

Tests used:
[1] = tested on: G. vaginalis sensu stricto strain Gv_9; assay: Quantitative reduction in viable CFU assay in bacterial suspension; assay type: cell-based, Gardnerella vaginalis sensu stricto; details: Gv_9; 5 hours, pH 5.0, anaerobic; 10 ul endolysin (0.2 mg/ml where possible) + 90 ul 5e7 CFU/ml; average of triplicate
Procedure: The lysis activity on the four main species of Gardnerella of 91 constructs (natural and domain-swapped endolysins) was quantitatively assessed using the method described in Reference Example 2. […]
The results are shown in FIGS. 8A to 8D together with Tables 5A to 5C. In FIGS. 8A to 8D, the logarithmic Y axis depicts the count of surviving cells. The dotted line indicates the limit of detection (LOD) given by plating of 2 ul of the reaction mix (500 CFU/ml). Each combination of the natural 10 H-domains and the natural 9 B-regions was assessed, including the natural endolysins (H1B1, H2B2, H3B3, etc.), plus H6B6. […] The activity of each construct was measured on each of the 4 main Gardnerella species G. vaginalis sensu stricto, G. leopoldii, G. piotii, and G. swidsinkii. All conditions have been measured in triplicate. The survival after 5 hours incubation at pH 5.0 under anaerobic conditions with endolysins vs. buffer was measured by quantitative plating. The values indicate the log 10 of the ratio of surviving CFU for treated vs. untreated cells. The average of the triplicate measurements is used. In tables 5A and 5B, high negative log 10 values, e.g. −6.7, −5.5, −4.8 etc. are associated with high enzymatic activity, while log 10 values closer to zero or even positive log 10 values are associated with low or no enzymatic activity. […] Inversely, a reduction value of −3.7 means a 10^3.7-fold (=5012-fold) reduction of viable CFU in treated sample vs. untreated control.
(§1) Gardnerella cells were recovered from cryo stock by plating on Chocolate Agar plates (Beckton Dickinson) and incubating for 48 h at 37° C. under anaerobic conditions. For Lactobacilli, BD Schaedler/5% sheep blood agar plates were used instead. Colonies were scraped from the plate, resuspended in Hardy Broth or NYC-III-HS-5.0 at the pH as indicated, and the suspension adjusted to OD (610 or 620 nm as indicated) 0.1. It has to be noted that two Tecan Microplate readers, having respectively a 610 nm or 620 nm filter, have been used interchangeably in the experiments. Although it doesn't make any difference for the experiments, the exact wavelength used is specified in each example. If not stated otherwise, 90 μl cell suspension was mixed with 10 μl endolysin solution, for the different species/endolysin combinations, in 384-well plates. OD(610-620 nm as indicated) was measured at the beginning of the reaction and at the end, either as two measurement points or as a continuous kinetic in a Tecan F200 Microplate reader. The reactions were incubated for 5 hours (or otherwise the time indicated) at 37° C. under anaerobic, micro-aerophilic or aerobic conditions as indicated. Anaerobic conditions intend that oxygen was fully depleted from the container in which the bacteria are incubated (Sigma-Aldrich anaerobic jar or sealable lunch box) with an anaerobic sachet, and the lack of oxygen was confirmed with an anaerobic indicator inside the container. Where micro-aerophilic conditions are indicated, the candle-in-a-jar method was used (tea candle lit in an appropriate sealable container, which reduces oxygen levels until the flame dies out). Then each well was diluted in 5 steps (10^−1 to 10^−5) using 96-U-well bottom plates, and 2 μl of each dilution of each reaction mix are plated on BD Chocolate agar plates or BD Schaedler/5% sheep blood agar plates for Gardnerella and Lactobacilli, respectively, for detecting and quantifying surviving CFU. Detection plates were incubated at 37° C. for 48 hours under anaerobic conditions.

Gardnerella cells = assay: Turbidity reduction (OD) assay of Gardnerella suspensions; assay type: cell-based; details: Gv_10 pH 6.0, Gv_17 pH 7.0, Gv_23 pH 7.4; aerobic, room temperature; vs buffer
Procedure: FIGS. 4A to 4C show three enzymatic activity assays where the enzymatic activity of natural Gardnerella prophage endolysins of the present disclosure is measured by detecting the change in turbidity of a suspension of Gardnerella cells. In FIG. 4A, the enzymatic activity of the endolysins is measured by detecting the change in turbidity of a suspension of the G. leopoldii strain Gv_10 at pH 6.0. In FIG. 4B, the enzymatic activity of the endolysins is measured by detecting the change in turbidity of a suspension of the G. piotii strain Gv_17 at pH 7.0. In FIG. 4C, the enzymatic activity of the endolysins is measured by detecting the change in turbidity of a suspension of the G. swidsinskii strain Gv_23 at pH 7.4. Treatment was conducted in a medium adjusted to the appropriate pH in a photometric cuvette against buffer. Then, the change in turbidity was assessed by measuring the optical density (OD) at 600 nm. As a result, the drop in turbidity was more pronounced for the endolysin treated groups than for the buffer, indicating enzymatic activity.
To test the activity of the purified endolysins, the turbidity change of Gardnerella suspensions (see Table 2) was measured at 610-620 nm using essentially the method described in Reference Example 2, where 95 ul of bacterial suspension in Hardy Broth at the indicated pH was mixed with 5 ul of endolysin solution in a photometric cuvette under aerobic conditions at room temperature. In turbidity reduction assays, a decrease in light scattering (i.e., turbidity reduction) of a suspension of live cells can be used in a spectrophotometer to assay the activity of peptidoglycan hydrolases. The reduction in optical density over time (minutes) can be used to calculate a rate of hydrolysis. Results are compared to a “no-enzyme added, buffer only” control preparation treated identically for the same period of time. In this manner, a specific activity of the enzyme preparation can be reported as ΔOD/time/ul lysin protein. […] As explained above, due to the low content of peptidoglycan in the cell wall, the fact that a peptidoglycan-degrading enzyme such as the identified endolysins could efficiently lyse the bacterial cell walls was an unexpected and surprising discovery.
as §1, with “Then each well was diluted in 5 steps (10^−1 to 10^−5) using 96-U-well bottom plates, and 2 μl of each dilution of each reaction mix are plated on BD Chocolate agar plates or BD Schaedler/5% sheep blood agar plates for Gardnerella and Lactobacilli, respectively, for detecting and quantifying surviving CFU. Detection plates were incubated at 37° C. for 48 hours under anaerobic conditions.” left out

Molecule | log 10 of the ratio of surviving CFU for treated vs. untreated cells [1] | enzymatic activity by drop in turbidity (capacity to lyse Gardnerella cell walls) (Gardnerella cells)
B1 | −1.9 log 10 | active
B2 | −1.2 log 10 | active
B3 | −3.0 log 10 | active
B4 | −0.4 log 10 | active
B5 | 0.2 log 10 | active
